Measurements as given in patent publication US20170015742A1 (published 2017).
Positions count from the first letter of the chain named.

What was measured:
[1] = target: recombinant murine PDGF-BB (mouse, UniProt P31240 82-190); assay: cell-based or functional assay
Human VEGF-A 165 = target: T1, Human VEGF-A 165 (human, UniProt P15692 207-395); assay: receptor competition ELISA, hVEGF165 binding to coated hVEGF-R2-Fc
T1 construct: Recombinant; also called huVEGF-A165; hVEGF165
Experimental: To identify molecules that could block the binding of hVEGF₁₆₅ to the hVEGF-R2 (KDR/Flk-1) receptor, a competition ELISA was performed. […] Plates were then washed four times with wash buffer (TBS, 0.05% Tween-20) and blocked with Superblock blocking buffer (Thermo Scientific, cat#37535). […] The pre-incubated sample/hVEGF₁₆₅ complex was added to the coated plate at 50 μL in duplicate and incubated for 30 minutes at 25° C. with shaking. Following incubation, plates were washed four times with wash buffer. Streptavidin-polyHRP-40 (Fitzgerald cal#65r-s104phrp) was diluted in assay diluent (10% Superblock containing 0.05% surfactamps) and added to plates (50 μL) for 45 minutes at 25° C. with shaking. Plates were washed four times with wash buffer and developed with the addition of Enhanced K-blue TMB substrate (Neogen cat#308177). The reaction was stopped with 2N sulfuric acid (VWR, cat# BDH3500-1) and the absorbance was read at 450 nm-570 nm. A decrease in observed optical density indicates the test molecule is blocking the hVEGF₁₆₅ binding to the hVEGF-R2-Fc. Data was analyzed using Softmax Pro 4.8 software and IC₅₀ values calculated using a sigmoidal dose response (variable slope) fit in GraphPad Prism 5.
Anti-VEGF-A antibodies derived from rat hybridomas were characterized for binding, function and cross-reactivity in a panel of assays. Supernatants were tested for the ability to bind hVEGF₁₆₅ (Example 1.3) and block binding of hVEGF₁₆₅ to hVEGFR2 in a competition ELISA format (Example 1.4).

Human PDGF-BB = target: T2, Human PDGF-BB (human, UniProt P01127 82-190); assay: Biacore SPR (Example 1.1)
T2 construct: Recombinant human PDGF-BB, a dimer of two B chains; also called huPDGF-BB; hPDGF-BB
T2 sequence (P01127 82-190 limits assumed): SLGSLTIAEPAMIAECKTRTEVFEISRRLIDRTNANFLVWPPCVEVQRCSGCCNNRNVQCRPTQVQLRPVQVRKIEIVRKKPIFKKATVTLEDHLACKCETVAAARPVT
Experimental: Unreacted moieties on the biosensor surface were blocked with ethanolamine. For kinetic analysis, rate equations derived from the 1:1 Langmuir binding model were fitted simultaneously to multiple antigen injections (using global fit analysis) with the use of Scrubber 2 (BioLogic Software), Biacore Biaevaluation 4.0.1 software or Biacore T100 Evaluation software. Purified antibodies or DVD-Ig molecules were diluted in running buffer for capture across goat anti-human Fc reaction surfaces. Antibodies or DVD-Ig molecules to be captured as a ligand (1 μg/ml) were injected over reaction matrices at a flow rate of 10 μl/minute. During the assay, all measurements were referenced against the capture surface alone (i.e., with no captured antibody or DVD-Ig molecule). […] The equilibrium dissociation constant KD (M) of the reaction between antibodies and the target antigen was then calculated from the kinetic rate constants by the following formula: KD=Koff/Kₒₙ. Binding was recorded as a function of time and kinetic rate constants were calculated. In this assay, on-rates as fast as 10⁶M⁻¹s⁻¹ and off-rates as slow as 10⁻⁶ s⁻¹ could be measured.

T1 sequence (P15692 other isoform, or with tags, fused parts or gaps limits assumed): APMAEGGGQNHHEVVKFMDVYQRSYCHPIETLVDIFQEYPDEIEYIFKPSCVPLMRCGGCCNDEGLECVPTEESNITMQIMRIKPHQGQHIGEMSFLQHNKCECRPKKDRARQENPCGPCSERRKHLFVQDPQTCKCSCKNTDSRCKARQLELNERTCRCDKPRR
Sequence of recombinant murine PDGF-BB (P31240 82-190 limits assumed): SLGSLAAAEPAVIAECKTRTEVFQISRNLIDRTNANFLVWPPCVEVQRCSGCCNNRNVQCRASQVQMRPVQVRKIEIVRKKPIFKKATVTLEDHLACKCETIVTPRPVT

B1: 4G8.3-SL-9E8.4E anti-VEGF-A/anti-PDGF-BB DVD-Ig (PR-1575834) (bispecific antibody, human IgG1, kappa, L234A L235A)
heavy: EVQLVQSGSELKKPGASVKVSCKASGYTFTNYGMYWVRQAPGQGLEWMGWINTETGKPTYADDFKGRFVFSLDTSVSTAYLQISSLKAEDTAVYYCARTNYYYRSYIFYFDYWGQGTMVTVSSASTKGPEVTLRESGPALVKPTQTLTLTCTFSGFSLSTYGMGVGWIRQPPGKALEWLANIWWDDDKYYNPSLKNRLTISKDTSKNQVVLTMTNMDPVDTATYYCARIESIGTTYSFDYWGQGTMVTVSSASTKGPSVFPLAPSSKSTSGGTAALGCLVKDYFPEPVTVSWNSGALTSGVHTFPAVLQSSGLYSLSSVVTVPSSSLGTQTYICNVNHKPSNTKVDKKVEPKSCDKTHTCPPCPAPEAAGGPSVFLFPPKPKDTLMISRTPEVTCVVVDVSHEDPEVKFNWYVDGVEVHNAKTKPREEQYNSTYRVVSVLTVLHQDWLNGKEYKCKVSNKALPAPIEKTISKAKGQPREPQVYTLPPSREEMTKNQVSLTCLVKGFYPSDIAVEWESNGQPENNYKTTPPVLDSDGSFFLYSKLTVDKSRWQQGNVFSCSVMHEALHNAYTQKSLSLSPGK
light: DTVLTQSPATLSLSPGERATLSCRASESVSTHMHWYQQKPGQAPRLLIYGASNLESGVPARFSGSGSGTDFTLTISSLEPEDFAVYFCQQSWNDPFTFGQGTKLEIKRTVAAPSVFIFPPEFVLTQSPGTLSLSPGERATLSCERSSGDIGESYVSWYQQKPGQAPRLVIYADDQRPSGIPDRFSGSGSGTDFTLTISRLEPEDFAVYYCQSYDINIDIVFGGGTKVEIKRTVAAPSVFIFPPSDEQLKSGTASVVCLLNNFYPREAKVQWKVDNALQSGNSQESVTEQDSKDSTYSLSSTLTLSKADYEKHKVYACEVTHQGLSSPVTKSFNRGEC
Potency IC50 (nM) mPDGF-BB (NIH-3T3 proliferation) [1]: 0.772 nM

B2: BEW-164-C4 (antibody, IgG2b, V domains shown)
VH: QIQLVQSGPELKKPGESVKISCKASGYSFTNYGMYWVKQAPGQGLQYMGWIDTETGKPTYTDDFKGRFVFFLETSASTAYLQINNLKNEDMATYFCARWSGDTAGIRGPWFAYWGQGTLVTVSS
VL: DIRMTQSPASLSASLGETVNIECLASEDIYSDLAWYQQKPGKSPQLLIYNANDLQKGVPSRFSGSGSGTQYSLKINSLQSEDVATYFCQQYNYYPGTFGAGTKLELK
notes: Rat hybridoma antibody, isotype IgG2b/kappa; also called BEW-1B4-C4
IC50 (Human VEGF-A 165): 0.18 nM

B3: BEW-9E10-E7 (antibody, IgG2a, V domains shown)
VH: B2 VH with V5L, S28T, K57R, T61A, A104T
VL: B2 VL with K42R, D53G, K56N, S63G, Y94F
notes: Rat hybridoma antibody, isotype IgG2a/kappa
IC50 (Human VEGF-A 165): 0.274 nM

B4: BDI-5G2-F9 (antibody, V domains shown)
VH: QVTLKESGPGILQPSQTLSLTCTFSGFSLSTFGMGVGWIRQPSGKGLEWLANIWWDDDKYYNPSLKNRLTISKDTSNSQAFLEITNVDTADTATYYCARISTGISSYYVMDAWGQGASVTVSS
VL: QFTLTQPKSVSGSLRSTITIPCERSSGDIGDTYVSWYQQHLGRPPINVIYGNDQRPSEVSDRFSGSIDSSSNSASLTITNLQMDDEADYFCQSYDSDIDIVFGGGTKLTVL
Kd (Human PDGF-BB): ≤ 0.0001 nM | kon (Human PDGF-BB): ≥ 1e+07 M⁻¹ s⁻¹

B5: BDI-5H1-F6 (antibody, V domains shown)
VH: B4 VH
VL: B4 VL
Kd (Human PDGF-BB): ≤ 0.0001 nM | kon (Human PDGF-BB): ≥ 1e+07 M⁻¹ s⁻¹

B6: BEW-1E3-D6 (antibody, IgG2b, V domains shown)
VH: QIQLVQSGPELKKPGESVKISCKASGYPFTNSGMYWVKQAPGQGLQYMGWINTEAGKPTYADDFKGRFVFFLETSASTAYLQINNLKNEDMATYFCARWGYISDNSYGWFDYWGQGTLVTVSS
VL: DTVLTQSPALAVSPGERVSISCRASEGVYSYMHWYQQNPGQQPKLLIYKASNLASGVPARFSGSGSGTDFTLTIDPVEADDTATYFCHQNWNDPLTFGSGTKLEIK
notes: Rat hybridoma antibody, isotype IgG2b/kappa
IC50 (Human VEGF-A 165): 0.62 nM

B7: BEW-5C3-E7 (antibody, IgG2b, V domains shown)
VH: QIQLVQSGPELKKPGESVKISCKASGYTFTNYGVYWVKQAPGQGLQYMGWINTETGKPTYADDFKGRFVFFLETSTNTAYLQINNLKNEDMATFFCARARQLDWFVYWGQGTLVTVSS
VL: DTVLTQSPALTVSPGERVSISCRARESLTTSLCWFQQKPGQQPKLLIYGASKLESGVPARFSGSGSGTDFTLTIDPVEADDTATYFCQQSWYDPPTFGGGTKLELK
notes: as for B6
IC50 (Human VEGF-A 165): 0.156 nM
